Reference: PMC7886630

Legend:
[1] = biological target: soluble recombinant human ACE2 (Gln18-Ser740), His-tagged (human) (UniProt Q9BYF1); assay: AFM single-molecule force spectroscopy
[2] = biological target: deglycosylated ACE2 treated with PNGase F (human) (UniProt Q9BYF1); assay: AFM single-molecule force spectroscopy

SARS-CoV-1 spike receptor-binding domain (residues 318-510) with C-terminal Fc tag (Fc fusion; modification not given)
koff [1]: 0.57 s⁻¹
koff [2]: 3.4 s⁻¹
